From patent US20210214447A1 (SHANGHAI INSTITUTE OF MATERIA MEDICA CHINESE ACADEMY OF …, published 2021) come the findings set out here.

As a reminder, the EC50 is the concentration at which the effect is half-maximal.

Test [1] addresses T1, extracellular domain of human AXL protein (AXL-ECD) (human, UniProt P30530 31-449).
T1 construct: expressed in HEK293T cells; coated on the ELISA plate; also called AXL-ECD protein; human AXL extracellular domain protein
T1 sequence: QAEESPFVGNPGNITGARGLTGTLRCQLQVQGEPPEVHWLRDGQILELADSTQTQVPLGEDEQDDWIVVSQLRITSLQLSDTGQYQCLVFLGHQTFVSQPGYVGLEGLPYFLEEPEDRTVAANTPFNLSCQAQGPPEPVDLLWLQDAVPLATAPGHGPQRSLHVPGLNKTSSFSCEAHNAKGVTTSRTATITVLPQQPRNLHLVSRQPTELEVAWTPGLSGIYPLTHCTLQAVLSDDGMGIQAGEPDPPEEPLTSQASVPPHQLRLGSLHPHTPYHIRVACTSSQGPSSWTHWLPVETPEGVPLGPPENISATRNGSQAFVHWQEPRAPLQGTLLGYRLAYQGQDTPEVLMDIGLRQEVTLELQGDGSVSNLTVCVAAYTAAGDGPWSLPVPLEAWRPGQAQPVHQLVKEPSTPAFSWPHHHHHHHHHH
The test can be described thus: ELISA, AXL-ECD. In general terms: An ELISA detects its analyte on a solid surface through an enzyme-linked reagent.

Test [2] addresses T2, human AXL on the surface of tumor cells (human, UniProt P30530 26-894).
T2 construct: whole, on cells; endogenous protein of human tumor cell lines; the cell line is named under assay or readout; also called AXL on the cell surface
T2 sequence (looked up): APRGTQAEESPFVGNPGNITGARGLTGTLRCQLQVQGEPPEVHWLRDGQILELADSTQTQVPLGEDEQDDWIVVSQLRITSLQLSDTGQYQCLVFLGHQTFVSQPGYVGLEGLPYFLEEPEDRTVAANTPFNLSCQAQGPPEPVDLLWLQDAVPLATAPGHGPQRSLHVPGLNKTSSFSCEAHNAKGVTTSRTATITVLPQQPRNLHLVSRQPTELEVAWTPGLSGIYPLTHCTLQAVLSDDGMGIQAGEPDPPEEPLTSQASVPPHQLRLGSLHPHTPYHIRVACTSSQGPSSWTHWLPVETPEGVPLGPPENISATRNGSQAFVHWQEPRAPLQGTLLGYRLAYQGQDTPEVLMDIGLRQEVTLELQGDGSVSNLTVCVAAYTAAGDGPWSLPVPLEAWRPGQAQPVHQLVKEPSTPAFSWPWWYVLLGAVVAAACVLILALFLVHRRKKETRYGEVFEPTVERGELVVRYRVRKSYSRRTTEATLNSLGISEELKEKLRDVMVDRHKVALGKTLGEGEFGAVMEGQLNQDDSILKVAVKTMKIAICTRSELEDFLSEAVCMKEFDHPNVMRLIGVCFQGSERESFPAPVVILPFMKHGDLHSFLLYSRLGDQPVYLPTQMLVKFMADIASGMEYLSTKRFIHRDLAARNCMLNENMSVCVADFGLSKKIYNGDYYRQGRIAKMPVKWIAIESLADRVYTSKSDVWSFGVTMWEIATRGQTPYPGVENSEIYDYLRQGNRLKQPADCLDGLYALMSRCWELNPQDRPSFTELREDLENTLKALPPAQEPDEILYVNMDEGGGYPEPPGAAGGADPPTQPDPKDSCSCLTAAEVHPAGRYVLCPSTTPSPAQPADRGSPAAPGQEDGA
Description: FACS on LCLC-103H cells. Here is the method:
(§1) Then the obtained solutions were incubated at 4° C. for 1 h, the cells were washed twice with PBS to remove unbound primary antibody, and then the target cells were incubated with 200 μL PE-labeled secondary antibody (2 μg/mL) at 4° C. for 30 min. The cells were washed twice with PBS to remove unbound secondary antibody. Finally, the cells were resuspended in 200 μL PBS, and the binding affinity of the test antibody to AXL on the cell surface was determined by a flow cytometer (FACSCalibur)
The experimental method was referred to Example 8.

Test [3] deals with T2, human AXL on the surface of tumor cells. Description: FACS on MDA-MB-231 cells. Here is the method: as §1
24 humanized antibodies in Table-6 were diluted by gradient, and their affinities to AXL, on the surface of MDA-MB-231 cells were determined by flow cytometer. The experimental method was referred to Example 8.

Test [4] deals with T1, extracellular domain of human AXL …. Description: ELISA, plate-coated AXL-ECD. Here is the method:
(§2) The extracellular domain of AXL protein (AXL-ECD) was diluted to […] with the coating solution, and coated onto ELISA plate with 100 μL/well at 4° C. overnight. The excess antigen was washed off. The plate was blocked with 1% BSA at room temperature for 2 h, then each monoclonal antibody in a 3-fold dilution was added at 100 µL/well. The plate was incubated at room temperature for 1 h; the unbound antibody was washed off, and appropriate concentration of anti-mouse secondary antibody labeled with horseradish peroxidase was added at 100 µL/well. The plate was incubated at room temperature for 0.5 h. The unbound secondary antibody was washed off. TMB Substrate was added and reacted for about 15 minutes. 1N HCL was added at 50 µL/well to stop the color reaction. Then the absorbance was measured at 450 nm and the obtained data was analyzed.
24 humanized antibodies in Table-6 were diluted by gradient, and their affinity to AXL-ECD protein was determined by ELISA. The experimental method was referred to Example 4.

The target of test [5] is T3, cynomolgus monkey AXL on the surface of HEK-293T cells (cynomolgus monkey).
T3 construct: transiently expressed in HEK293T cells from pcDNA3.1
Description: FACS on HEK293T cells transiently expressing monkey AXL. Here is the method: 3. HEK293T cells were spread to a 50% density in a culture dish, and cultured overnight at 37° C. to a confluence of about 80%. […] of monkey/mouse-AXL vector plasmid prepared above was transiently transfected into the cells with Liposome Lipo2000 (Invitrogen). 24 hours after transfection, the proteins were collected for Western blot analysis, and the cells were collected for FACS to detect the binding activity of Hu002-2 and monkey/mouse AXL on HEK293T cell surface. The FACS detection test method may be referred to Example 18.

Test [6] has as its target T2, human AXL on the surface of tumor cells. Description: FACS on NCI-H1299 cells. Here is the method: as §1
AXL-high-expression lung cancer cells NCI-H1299 were used as target cells. 100 μL of the test antibody diluted in a 3-fold gradient was used as primary antibody, and mixed with 1×10⁵ NCI-H1299 cells suspended in 100 μL RPMI-1640 serum-free medium. The operation method was the same as above. Finally, the cells were resuspended in 200 μL PBS, and the binding affinity of the tested antibody to AXL on the cell surface was determined by a flow cytometer (FACSAria II).

The target is the same in test [7]. Description: FACS on MDA-MB-231 cells. Here is the method:
as §1
This is another data set of the same source.

In test [8] the target is T1, extracellular domain of human AXL …. The test can be described thus: ELISA, plate-coated AXL-ECD. Here is the method:
as §2
The source holds these as a separate data set.

Test [9] deals with T2, human AXL on the surface of tumor cells. Description: FACS on MDA-MB-231 cells, mean EC50. Here is the method:
as §1

Like-named read-outs stand apart in the source and are kept apart here.

B1: mAb002 (antibody, V domains shown)
VH: QIQLQQSGPELVKPGASVKISCKASGYPFTDFYINWVKQKPGQGLEWIGWIYPGSGNTKYNEKFKGKATLTVDTSSSTAYMQLSSLTSEDTAVYFCARSTGFFDYWGQGTTLTVSS
VL: QIVLTQSPALMSASPGEKVTMTCSASSSIGYMYWYQQKPRSSPKSWIYLTSNLASGVPARFSGSGSGTSYSLTISSMEAEDAATYYCQQWSSNPPTFGAGTKLELK
notes: murine hybridoma antibody, IgG1/k; also called original murine antibody mAb002
B1 registered an EC50 in test [1] of 0.063 nM.

B2: Hu002-2 (antibody, V domains shown)
VH: QVQLVQSGAEVKKPGASVKVSCKASGYPFTDFYINWVRQAPGQGLEWMGWIYPGSGNTKYNEKFKGRVTLTVDTSISTAYMELSRLRSDDTAVYYCARSTGFFDYWGQGTLVTVSS
VL: EIVLTQSPATLSLSPGERATLSCSASSSIGYMYWYQQKPGQAPRLLIYLTSNLASGIPARFSGSGSGTDFTLTISSLEPEDFAVYYCQQWSSNPPTFGQGTKLEIK
notes: humanized from mAb002c; also called Hu002c-2
Regarding B2, the EC50 was 0.37 nM in test [2], 0.112 nM in test [3], 0.055 nM in test [4] and 0.135 nM in test [5]. Also, the “Highest MFI value (FACSCalibur)” value in test [3] is 278 MFI. For the same molecule, the “TOP (OD450)” value in [4] turned out to be 3.6 OD450.

B3: Hu002-4 (antibody, V domains shown)
VH: QVQLVQSGAEVKKPGASVKVSCKASGYPFTDFYINWVRQAPGQGLEWMGWIYPGSGNTKYNEKFKGRVTMTRDTSISTAYMELSRLRSDDTAVYYCARSTGFFDYWGQGTLVTVSS
VL: EIVLTQSPATLSLSPGERATLSCSASSSIGYMYWYQQKPGQAPRLLIYLTSNLASGIPARFSGSGSGTDYTLTISSLEPEDFAVYYCQQWSSNPPTFGQGTKLEIK
notes: humanized from mAb002c; also called Hu002c-4
B3: in test [2], the midpoint of the response, the EC50, lay at 0.49 nM. In test [3], it took 0.09 nM to reach a half-maximal effect (EC50) and the “Highest MFI value (FACSCalibur)” value came to 277 MFI. Further, in [4], the concentration giving a half-maximal response (EC50) was 0.055 nM and the “TOP (OD450)” value worked out at 3.6 OD450.

B4: mAb001 (antibody, V domains shown)
VH: AVQLQESGPSLVKPSQTLSLTCSVTGDSITSGYWSWIRKFPGNKLESMGYMTYSGATYYNPSLKSRISITRDTSKNQYYLQLNSVTPEDTATYYCARGGNSYFFDYWGQGTTLTVSS
VL: DIQMTQSPASLSVSVGETVTITCRASENIYSNLAWYQLKQGKSPHLLVYAATNLADGVPSRFSGSGSGTQYSLKIISLQSEDFGTYYCQHFWGTPLTFGAGTKLELK
notes: murine hybridoma antibody, IgG1/k; also called original murine antibody mAb001
Regarding B4, the EC50 in test [1] worked out at 0.073 nM.

B5: mAb001c (antibody, V domains shown)
VH: AVQLQESGPSLVKPSQTLSLTCSVTGDSITSGYWSWIRKFPGNKLESMGYMTYSGATYYNPSLKSRISITRDTSKNQYYLQLNSVTPEDTATYYCARGGNSYFFDYWGQGTTLTVSS
VL: DIQMTQSPASLSVSVGETVTITCRASENIYSNLAWYQLKQGKSPHLLVYAATNLADGVPSRFSGSGSGTQYSLKIISLQSEDFGTYYCQHFWGTPLTFGAGTKLELK
notes: also called human-mouse chimeric antibody mAb001c
For the molecule B5, in test [6], a half-maximal response (EC50) required 1.49 nM and the “Highest MFI value (FACSAria II)” value was found to be 2370 MFI. The “Highest MFI value (FACSCalibur)” value in [7] is 217 MFI. In test [8], it took 0.092 nM to reach a half-maximal effect (EC50) and the “Highest reading (OD450 nm)” value stood at 3.8 OD450 nm. In [9], this molecule gave an EC50 of 0.84 nM.

B6: mAb005 (antibody, V domains shown)
VH: QVQLQQSGPELVKPGASVKISCKASGYSFTSYYIHWVQQRPGQGLEWIGWIYPGSDNTKYNEKFKDKATLTADTSSGTAYMQLSSLTSDDSAVFYCARNYYDYDGGTWFPYWGQGTLVTVSA
VL: DIQMTQTTSSLSASLGDRVTISCRASQDINYYLNWYQQKPDGTVKLLIYYTSRLHSRVPSRFSGSGSGTDYSLTISNLEQEDIATYFCQQGNTLPWTFGGGTKLEIK
notes: murine hybridoma antibody, IgG1/k; also called original murine antibody mAb005
B6 registered an EC50 in [1] of 0.092 nM.

B7: mAb005c (antibody, V domains shown)
VH: QVQLQQSGPELVKPGASVKISCKASGYSFTSYYIHWVQQRPGQGLEWIGWIYPGSDNTKYNEKFKDKATLTADTSSGTAYMQLSSLTSDDSAVFYCARNYYDYDGGTWFPYWGQGTLVTVSA
VL: DIQMTQTTSSLSASLGDRVTISCRASQDINYYLNWYQQKPDGTVKLLIYYTSRLHSRVPSRFSGSGSGTDYSLTISNLEQEDIATYFCQQGNTLPWTFGGGTKLEIK
notes: also called human-mouse chimeric antibody mAb005c
In the case of B7, in test [6], the 50% effective concentration (EC50) came out at 0.908 nM and the “Highest MFI value (FACSAria II)” value came out at 2140 MFI. Also, in [7], the “Highest MFI value (FACSCalibur)” value stood at 208 MFI. Moreover, in test [8], the EC50 was found to be 0.103 nM and the “Highest reading (OD450 nm)” value stood at 3.78 OD450 nm. The EC50 in test [9] amounted to 0.4 nM.

B8: AXL107 (antibody, V domains shown)
VH: EVQLLESGGGLVQPGGSLRLSCAASGFTFSSYAMNWVRQAPGKGLEWVSTTSGSGASTYYADSVKGRFTISRDNSKNTLYLQMNSLRAEDTAVYYCAKIWIAFDIWGQGTMVTV
VL: not shown
notes: also called control antibody AXL107; AXL07
As to B8, the EC50 in [2] is 0.8 nM; in [6], 0.655 nM; in [8] it was 0.075 nM; in test [9], 0.433 nM. The “Highest MFI value (FACSAria II)” value in test [6] turned out to be 2010 MFI. For the same molecule, in [7], the “Highest MFI value (FACSCalibur)” value came out at 218 MFI. Further, in test [8], the “Highest reading (OD450 nm)” value was found to be 3.77 OD450 nm.
